# Test results reported in patent US20210189359A1 (UNIVERSITY OF KENTUCKY RESEARCH FOUNDATION, published 2021).
# Target: T1, human FcRn (human, UniProt P55899 24-297; P61769 21-119, limits assumed)
# T1 construct: the construct, its source and whether b2m was present are not described; also called neonatal Fc receptor
# Assay: in vitro binding to human FcRn at pH 6; method not described
row,Kd [nM],Binder
1,43,"CocH-LAF6 (Fc fusion, Direct fusion without a linker; also called CocH3-LAF6; CocH3(529)-Fc(M6)) EDDIIIATKNGKVRGMNLTVFGGTVTAFLGIPYAQPPLGRLRFKKPQSLTKWSDIWNATKYANSCCQNIDQSFPGFHGSEMWNPNTDLSEDCLYLNVWIPAPKPKNATVLIWIYGGGFQTGTSSLHVYDGKFLARVERVIVVSMNYRVGALGFLALPGNPEAPGNMGLFDQQLALQWVQKNIAAFGGNPKSVTLFGESSGAASVSLHLLSPGSHSLFTRAILQSGSANAPWAVTSLYEARNRTLNLAKLTGCSRENETEIIKCLRNKDPQEILLNEAFVVPYGTPLGVNFGPTVDGDFLTDMPDILLELGQFKKTQILVGVNKDEGTWFLVGGAPGFSKDNNSIITRKEFQEGLKIFFPGVSEFGKESILFHYTDWVDDQRPENYREALGDVVGDYNFICPALEFTKKFSEWGNNAFFYYFEHRSSKLPWPEWMGVMHGYEIEFVFGLPLERRDNYTKAEEILSRSIVKRWANFAKYGNPNETQNNSTSWPVFKSTEQKYLTLNTESTRIMTKLRAQQCRFWTSFFPKVVEPKSCDKTHTCPPCPAPELLGGPSVFLFPPKPKDTLYITREPEVTCVVVDVSHEDPEVKFNWYVDGVEVHNAKTKPREEQYNSTYRVVSVLTVLHQDWLNGKEYKCKVSNKALPAPIEKTISKAKGQPREPQVYTLPPSREEMTKNQVSLTCLVKGFYPSDIAVEWESNGQPENNYKTTPPVLDSDGSFFLYSKLTVDKSRWQQGNVFSCSVMHEALHNHYTQKSLSLSPGK"
2,43,"CocH-LAF8 (Fc fusion, Direct fusion without a linker; also called CocH2-LAF8; A199S/F227A/P285Q/S287G/A328W/Y332G/A530V/M567Y/S569T/T571E/D671E/L673M mutant of BChE(529)-Fc) EDDIIIATKNGKVRGMNLTVFGGTVTAFLGIPYAQPPLGRLRFKKPQSLTKWSDIWNATKYANSCCQNIDQSFPGFHGSEMWNPNTDLSEDCLYLNVWIPAPKPKNATVLIWIYGGGFQTGTSSLHVYDGKFLARVERVIVVSMNYRVGALGFLALPGNPEAPGNMGLFDQQLALQWVQKNIAAFGGNPKSVTLFGESSGAASVSLHLLSPGSHSLFTRAILQSGSANAPWAVTSLYEARNRTLNLAKLTGCSRENETEIIKCLRNKDPQEILLNEAFVVPYGTQLGVNFGPTVDGDFLTDMPDILLELGQFKKTQILVGVNKDEGTWFLVGGAPGFSKDNNSIITRKEFQEGLKIFFPGVSEFGKESILFHYTDWVDDQRPENYREALGDVVGDYNFICPALEFTKKFSEWGNNAFFYYFEHRSSKLPWPEWMGVMHGYEIEFVFGLPLERRDNYTKAEEILSRSIVKRWANFAKYGNPNETQNNSTSWPVFKSTEQKYLTLNTESTRIMTKLRAQQCRFWTSFFPKVVEPKSCDKTHTCPPCPAPELLGGPSVFLFPPKPKDTLYITREPEVTCVVVDVSHEDPEVKFNWYVDGVEVHNAKTKPREEQYNSTYRVVSVLTVLHQDWLNGKEYKCKVSNKALPAPIEKTISKAKGQPREPQVYTLPPSREEMTKNQVSLTCLVKGFYPSDIAVEWESNGQPENNYKTTPPVLDSDGSFFLYSKLTVDKSRWQQGNVFSCSVMHEALHNHYTQKSLSLSPGK"
3,43,"CocH-LAF7 (Fc fusion, Direct fusion without a linker; also called CocHl-LAF7; CocH1-LAF7) EDDIIIATKNGKVRGMNLTVFGGTVTAFLGIPYAQPPLGRLRFKKPQSLTKWSDIWNATKYANSCCQNIDQSFPGFHGSEMWNPNTDLSEDCLYLNVWIPAPKPKNATVLIWIYGGGFQTGTSSLHVYDGKFLARVERVIVVSMNYRVGALGFLALPGNPEAPGNMGLFDQQLALQWVQKNIAAFGGNPKSVTLFGESSGAASVSLHLLSPGSHSLFTRAILQSGSANAPWAVTSLYEARNRTLNLAKLTGCSRENETEIIKCLRNKDPQEILLNEAFVVPYGTALGVNFGPTVDGDFLTDMPDILLELGQFKKTQILVGVNKDEGTWFLVGGAPGFSKDNNSIITRKEFQEGLKIFFPGVSEFGKESILFHYTDWVDDQRPENYREALGDVVGDYNFICPALEFTKKFSEWGNNAFFYYFEHRSSKLPWPEWMGVMHGYEIEFVFGLPLERRDNYTKAEEILSRSIVKRWANFAKYGNPNETQNNSTSWPVFKSTEQKYLTLNTESTRIMTKLRAQQCRFWTSFFPKVVEPKSCDKTHTCPPCPAPELLGGPSVFLFPPKPKDTLYITREPEVTCVVVDVSHEDPEVKFNWYVDGVEVHNAKTKPREEQYNSTYRVVSVLTVLHQDWLNGKEYKCKVSNKALPAPIEKTISKAKGQPREPQVYTLPPSREEMTKNQVSLTCLVKGFYPSDIAVEWESNGQPENNYKTTPPVLDSDGSFFLYSKLTVDKSRWQQGNVFSCSVMHEALHNHYTQKSLSLSPGK"
